These results are taken from patent US12102661B2.

The target in one assay is Angioensin Converting Enzyme (ACE).
Turning to “papain hydrolysate of ginkgo protein (pool or library)”, the Inhibitory activity of hydrolysate (%) is 73.2%.

In turn, “AS1.398 neutral protease hydrolysate of ginkgo protein (pool or library)” returned an Inhibitory activity of hydrolysate (%) of 87.4%.

With “trypsin hydrolysate of ginkgo protein (pool or library)”, the Inhibitory activity of hydrolysate (%) turned out to be 61.3%.

Turning to “Alcalase hydrolysate of ginkgo protein (pool or library)”, the Inhibitory activity of hydrolysate (%) worked out at 80.4%.

Another assay shares this target. This is another data set of the same source.
For “Ultrafiltrate of 3-10 kDa of ginkgo protein hydrolysate (pool or library)”, the ACE inhibitory activity (%) stood at 72%.

On to “Ultrafiltrate below 3 kDa of ginkgo protein hydrolysate (pool or library)”, for which the ACE inhibitory activity (%) was found to be 85.3%.

“Over 10 kDa concentrated solution of ginkgo protein hydrolysate (pool or library)” came in with an ACE inhibitory activity (%) of 56.2%.
